For 1 substance, Kd results are on record in article PMC10235082.

Test [1] deals with human FcγRIA (human) (UniProt P12314). Description: SPR; Biacore T200; FcγRs immobilised on CM5 sensor chip, IVIG or rhIgG1 Fc injected; three-fold serial dilution (FcγRIA from 300 nM; FcγRIIA from 20 μM; FcγRIIIA from 3 μM IVIG and 300 nM hIgG1 Fc); regeneration 10 mM glycine; single cycle kinetics model.
For test [2], the target named is human FcγRIIIA F176V (human) (UniProt P08637). The test is described as above.
Chain of UniProt P08637 (P08637 17-208 F176V): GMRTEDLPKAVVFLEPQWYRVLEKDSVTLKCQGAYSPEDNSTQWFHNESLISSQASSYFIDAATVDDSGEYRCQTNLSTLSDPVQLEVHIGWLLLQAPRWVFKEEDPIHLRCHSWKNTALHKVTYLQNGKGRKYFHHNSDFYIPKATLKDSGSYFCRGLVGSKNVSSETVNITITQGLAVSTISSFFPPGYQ
Test [3] concerns the target human FcRn (human) (UniProt P55899). The test can be described thus: SPR; Biacore T200; FcRn immobilised on CM5 sensor chip, IVIG (from 500 nM) or rhIgG1 Fc (from 250 nM) injected, two-fold serial dilution; regeneration 100 mM Tris-HCl; multicycle kinetics model (methods), steady state equilibrium model (legend of Fig. 4).
Chain of UniProt P55899 (P55899 24-297, chain 1 of 2): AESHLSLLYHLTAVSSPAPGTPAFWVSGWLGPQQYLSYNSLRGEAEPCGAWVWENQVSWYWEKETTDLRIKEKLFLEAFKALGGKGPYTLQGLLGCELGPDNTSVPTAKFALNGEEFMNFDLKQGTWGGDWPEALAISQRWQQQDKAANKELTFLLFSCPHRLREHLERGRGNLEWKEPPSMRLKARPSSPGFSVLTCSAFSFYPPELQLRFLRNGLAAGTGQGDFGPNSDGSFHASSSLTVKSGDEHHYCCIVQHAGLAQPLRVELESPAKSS
Chain of UniProt P55899 (P61769 21-119, chain 2 of 2, further chain): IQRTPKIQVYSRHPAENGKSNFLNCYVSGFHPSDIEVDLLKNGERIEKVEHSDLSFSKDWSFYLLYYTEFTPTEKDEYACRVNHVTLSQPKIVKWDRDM

Chain of UniProt P12314 (P12314 16-292): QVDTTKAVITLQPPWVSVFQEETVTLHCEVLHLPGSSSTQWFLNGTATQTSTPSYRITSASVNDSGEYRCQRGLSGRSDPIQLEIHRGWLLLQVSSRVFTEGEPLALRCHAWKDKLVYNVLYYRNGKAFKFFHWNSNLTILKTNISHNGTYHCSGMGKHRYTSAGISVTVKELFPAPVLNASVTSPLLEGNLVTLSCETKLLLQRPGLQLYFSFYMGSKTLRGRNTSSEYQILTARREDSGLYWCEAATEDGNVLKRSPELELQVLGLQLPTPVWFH

As to “recombinant human IgG1 Fc derived from ALB::hIgG1 Fc genome-edited chickens (domain or fragment)”, the values for the Kd in test [1], in test [2] and in test [3] were 1.28 nM, 9.98 nM and 9.09 nM, respectively.

As a reminder, the Kd is a measure of binding affinity in units of concentration. Read a high Kd as lower affinity.
